Data from PMC4774645.

B1: human matrix metalloproteinase 9 (hMMP-9): mS38 (protein)
parent chain: MSLWQPLVLVLLVLGCCFAAPRQRQSTLVLFPGDLRTNLTDRQLAEEYLYRYGYTRVAEMRGESKSLGPALLLLQKQLSLPETGELDSATLKAMRTPRCGVPDLGRFQTFEGDLKWHHHNITYWIQNYSEDLPRAVIDDAFARAFALWSAVTPLTFTRVYSRDADIVIQFGVAEHGDGYPFDGKDGLLAHAFPPGPGIQGDAHFDDDELWSLGKGVVVPTRFGNADGAACHFPFIFEGRSYSACTTDGRSDGLPWCSTTANYDTDDRFGFCPSERLYTQDGNADGKPCQFPFIFQGQSYSACTTDGRSDGYRWCATTANYDRDKLFGFCPTRADSTVMGGNSAGELCVFPFTFLGKEYSTCTSEGRGDGRLWCATTSNFDSDKKWGFCPDQGYSLFLVAAHEFGHALGLDHSSVPEALMYPMYRFTEGPPLHKDDVNGIRHLYGPRPEPEPRPPTTTTPQPTAPPTVCPTGPPTVHPSERPTAGPTGPPSAGPTGPPTAGPSTATTVPLSPVDDACNVNIFDAIAEIGNQLYLFKDGKYWRFSEGRGSRPQGPFLIADKWPALPRKLDSVFEERLSKKLFFFSGRQVWVYTGASVLGPRRLDKLGLGADVAQVTGALRSGRGKMLLFSGRRLWRFDVKAQMVDPRSASEVDRMFPGVPLDTHDVFQYREKAYFCQDRFYWRVSSRSELNQVDQVGYVTYDILQCPED
B2: human matrix metalloproteinase 9 (hMMP-9): N120S (protein)
parent chain: B1 parent chain
B3: human matrix metalloproteinase 9 (hMMP-9): mS38/ N120S (protein)
parent chain: B1 parent chain
B4: human matrix metalloproteinase 9 (hMMP-9): N38G (protein)
parent chain: B1 parent chain
B5: human matrix metalloproteinase 9 (hMMP-9): N38P (protein)
parent chain: B1 parent chain
B6: human matrix metalloproteinase 9 (hMMP-9): N38E (protein)
parent chain: B1 parent chain
B7: human matrix metalloproteinase 9 (hMMP-9): tunicamycin (protein)
parent chain: B1 parent chain
B8: human matrix metalloproteinase 9 (hMMP-9): castanospermine (CST) (protein)
parent chain: B1 parent chain
B9: human matrix metalloproteinase 9 (hMMP-9): tunicamycin (250 ng/ml) (protein)
parent chain: B1 parent chain
B10: human matrix metalloproteinase 9 (hMMP-9): CST (1 mM) (protein)
parent chain: B1 parent chain

Legend:
[1] = Western blot of cell lysate; conditions: glycan lost; control: wild type
[2] = fluorogenic substrate kinetics with TIMP-1 titration; conditions: glycan lost; control: wild type
[3] = APMA or MMP-3 zymogen activation time course, Western; conditions: glycan lost; control: wild type
[4] = Western blot of culture media, 24 h; conditions: glycan lost; control: wild type
[5] = gelatin zymography of secreted protein; conditions: glycan lost; control: wild type
[6] = mCherry co-localisation with organelle-targeted eGFP; conditions: glycan lost; control: wild type
[7] = mCherry fluorescence in media, 32 h time course; conditions: glycan lost; control: wild type
[8] = fluorogenic substrate assay on cell lysate; conditions: glycan lost; control: wild type
[9] = mCherry fluorescence in media, 24 h, N38X series; conditions: glycan lost; control: wild type
[10] = Western blot of media, transfected HEK293; conditions: control: untreated
[11] = hMMP-9-mCherry fluorescence microscopy; conditions: control: untreated
[12] = mCherry fluorescence in media, 24 h; conditions: glycan changed form; control: untreated

| Protein | expression_or_secretion [1] | expression_or_secretion [4] | localisation_or_trafficking [6] | expression_or_secretion, fold_change [7] | expression_or_secretion [9] | further results |
| --- | --- | --- | --- | --- | --- | --- |
| B1 | no change | no change | no change | no change |  | other: inhibition by TIMP-1 [2]: no change; other: proteolytic processing [3]: no change; enzymatic_activity [5]: no change |
| B2 | no change | decreases | changes | decreases |  | enzymatic_activity [8]: decreases |
| B3 | no change | abolishes | changes | decreases |  | enzymatic_activity [8]: decreases |
| B4 |  |  |  |  | no change |  |
| B5 |  |  |  |  | no change |  |
| B6 |  |  |  |  | no change |  |
| B7 |  |  |  |  |  | expression_or_secretion ([10]; glycan lost): decreases |
| B8 |  |  |  |  |  | expression_or_secretion ([10]; glycan changed form): decreases |
| B9 |  |  |  |  |  | localisation_or_trafficking ([11]; glycan lost): changes |
| B10 |  |  |  |  |  | expression_or_secretion [12]: decreases; localisation_or_trafficking ([11]; glycan changed form): changes |
